Experimental data published in article PMC10080691, “Enzyme-Responsive Double-Locked Photodynamic Molecular Beacon for Targeted Photodynamic Anticancer Therapy” (Journal of the American Chemical Society, 2023).

What was measured:
[1] = Singlet oxygen quantum yield in DMF with DPBF as probe; type: physicochemical; settings: irradiation λ > 610 nm, relative to ZnPc (ΦΔ = 0.56 in DMF)
Excerpt: The singlet oxygen generation efficiency of 1 was then studied and compared with that of 8, 14, and ZnPc in all these media using 1,3-diphenylisobenzofuran (DPBF) as the singlet oxygen probe.[67] The absorbance of DPBF’s absorption at 415 nm (in DMF) or 417 nm (in PBS and the buffer) was monitored during light irradiation (λ > 610 nm). Figures S4–S6 show the changes in the absorption spectra of the mixtures in DMF, PBS, and the buffer, respectively, upon irradiation. […] The singlet oxygen quantum yields (ΦΔ) were also determined in DMF. […]
where W and Iabs are the DPBF photobleaching rate and the rate of light absorption, […]
MMP-2 and Cathepsin B-Responsive Spectroscopic Studies
Compound 1 or 14 was dissolved in DMF to form a 1 mM stock solution, which was then diluted to 1 μM with PBS at pH 7.4 or buffer solution (pH 5.0, 25 mM NaOAc, 1 mM EDTA, 500 μM GSH), both in the presence of 0.1% Tween 80 (v/v) . For the MMP-2-responsive studies, the solutions in PBS were treated with MMP-2 (2 μg mL-1). For the cathepsin B-responsive studies, the solutions in buffer solution were treated with cathepsin B (1 unit mL-1). […]
All of the solutions were stirred continuously at 37 °C. The ir electronic absorption and fluorescence spectra were monitored over a period of 25 h. […]

[2] = test system: A549 cells; test: Intracellular ROS generation (H2DCFDA); type: cell-based, human; settings: 2 μM 1 h + 6 h, light λ > 610 nm, 23 mW cm-2, 14 J cm-2
Protocol: The enzyme-responsive intracellular ROS generation of 1 was then examined in A549 and HeLa cells using 2′,7′-dichlorodihydrofluorescein diacetate (H2DCFDA) as the ROS fluorescent probe. Once H2DCFDA is internalized, it will be deacetylated by the intracellular esterase, followed by oxidation by the intracellular ROS, leading to the formation of the highly fluorescent 2′,7′-dichlorofluorescein (DCF).[79] The cells were first pretreated with SB-3CT (10 μM) and/or CA-074 Me (25 μM) or simply the neat medium for 2 h, followed by incubation with 1 (2 μM) for a further 1 h. As a negative control, the cells were simply incubated with 14 (2 μM) for 1 h. After being rinsed with PBS, the cells were incubated in the medium for a further 6 h. Finally, the cells were incubated with H2DCFDA (10 μM) for 30 min, followed by dark or light (λ > 610 nm, 23 mW cm^–2, 14 J cm^–2) treatment. […] It can be seen that for the MMP-2-positive A549 cells, the fluorescence due to DCF was in the following order: 1 without pretreatment of the cells with the two inhibitors > 1 with pretreatment of the cells with either one of the two inhibitors > 1 with pretreatment of the cells with both inhibitors ≈ 14. […] This trend, which reflects the extent of recovery of ROS generation, was in accord with that of the fluorescence recovery inside the cells (Figure 5c,d). For the MMP-2-negative HeLa cells, the intracellular fluorescence remained very weak even for 1 without pretreatment of the cells with the two inhibitors because of the intrinsically low MMP levels in the cells. […]
or ER-Tracker Green (Thermo Fisher Scientific Inc., E34251) (1 μM for 15 min) in a serum-free medium at 37 °C. […] All the trackers were excited at 488 nm and their fluorescence was monitored at 500−570 nm, while the DSBDP moiety was excited at 638 nm and its fluorescence was monitored at 650−750nm. The images were digitized and analyzed using a Leica Application Suite X software. […]
at 500−550 nm. The images were digitized and analyzed using a Leica Application Suite X […]

Structure (SMILES) | ΦΔ (singlet oxygen quantum yield) [1] | intracellular ROS generation (DCF fluorescence) ([2]; pretreatment with both SB-3CT (10 μM) and CA-074 Me (25 μM) 2 h) | intracellular ROS generation (DCF fluorescence) ([2]; no inhibitor pretreatment)
CCN(CC)c1ccc2nc3ccc(/N=N/c4ccc(N(C)CCCNC(=O)OC[C@@H]5[C@@H]6CCc7nnn(CC(=O)NCCCC[C@@H]8NC(=O)CNC(=O)[C@H](CCCCN)NC(=O)[C@H](CCCNC(=N)N)NC(=O)[C@H](C(C)C)NC(=O)CNC(=O)[C@H](CC(C)C)NC(=O)[C@@H]9CCCN9C(=O)[C@H](CCCCN)NC(=O)[C@@H](N)CSCc9cc(COc%10ccc(C%11=C%12C(C)=C(I)C(/C=C/c%13ccc(OCCOCCOCCOC)cc%13)=[N+]%12[B-](F)(F)n%12c(/C=C/c%13ccc(OCCOCCOCCOC)cc%13)c(I)c(C)c%12%11)cc%10)cc(c9)CSC[C@@H](C(N)=O)NC(=O)[C@H](CCCCN)NC(=O)[C@H](CCCCN)NC(=O)CNC(=O)[C@H](CC(C)C)NC(=O)[C@H](Cc9ccccc9)NC(=O)CNC(=O)[C@H](CCCCN)NC(=O)CNC8=O)c7CC[C@@H]65)cc4)cc3[n+](-c3ccccc3)c2c1 [compound 1] | 0.02 | could hardly be observed | 
CCN(CC)c1ccc2nc3ccc(/N=N/c4ccc(N(C)CCCNC(=O)OC[C@@H]5[C@@H]6CCc7nnn(CC(=O)NCCCC[C@@H]8NC(=O)CNC(=O)[C@H](CCCCN)NC(=O)CNC(=O)CNC(=O)CNC(=O)CNC(=O)CNC(=O)[C@H](CCCCN)NC(=O)[C@@H](N)CSCc9cc(COc%10ccc(C%11=C%12C(C)=C(I)C(/C=C/c%13ccc(OCCOCCOCCOC)cc%13)=[N+]%12[B-](F)(F)n%12c(/C=C/c%13ccc(OCCOCCOCCOC)cc%13)c(I)c(C)c%12%11)cc%10)cc(c9)CSC[C@@H](C(N)=O)NC(=O)[C@H](CCCCN)NC(=O)[C@H](CCCCN)NC(=O)CNC(=O)CNC(=O)CNC(=O)CNC(=O)[C@H](CCCCN)NC(=O)CNC8=O)c7CC[C@@H]65)cc4)cc3[n+](-c3ccccc3)c2c1 [compound 14] | 0.02 |  | could hardly be observed
